Like-named read-outs stand apart in the source and are kept apart here.

The subject of data set [1] is S. cerevisiae W303-1A lactic acid-grown cells. Conditions: cited from earlier work.
Data set [2] concerns S. cerevisiae W303-1A jen1Δ ady2Δ cells. It counts as cell-based. Conditions: for Kd (diffusion component) for lactate, non-mediated transport: cells grown in YNB lactic acid. The protocol:
FIG. 4. Initial uptake rates of the radiolabelled 14C -Lactic acid at different concentrations. S. cerevisaie W303-1A jen1 Δady2Δ cells containing the plasmid pNJ-LctP-CJ-GFP and pNJ-LIdp-CJ-GFP were grown in YNB Lactic acid medium at pH 5.5 and 30° C., until mid-exponential growth phase.
In an embodiment, to confirm the successful heterologous expression of transporters in this system several studies were carried out as described in (Soares-Silva, et al. 2015): radiolabelled lactate uptake assays, growth assays in solid minimal medium with carboxylates or sugars as sole carbon source and fluorescence microscopy to detect the location of GFP fusion proteins.
The growth of the S. cerevisiae ady2Δjen1Δ strain expressing the NJ-LldP-CJ-GFP protein and control strains were evaluated in YNB media (supplemented according to the required auxotrophies) containing lactic acid (0.5%) pH 5.5 at 18° C. The S. cerevisiae ady2Δjen1Δ strains expressing the native LIdP (pLIdP), the empty vector (p416GPD) and the ScJen1p (pDS1) were used as controls.
As a control the IctP gene was cloned in the p416GPD vector. For this construct the IctP gene was amplified from S. aureus genomic DNA using the primers LcFWD and LcREV (Table 1) and inserted and ligated in the p416GPD vector using the restriction enzymes BamHI and EcoRI. […] The growth of S. cerevisiae strains was tested in YNB media (supplemented according to the required auxotrophies) containing lactic acid 0.5% (pH 5.5).

For data set [3], the system named is hxt null mutant EBY.4000 strain. Conditions: HXT1 expressed in EBY.4000, Özcan and Johnston 1999, cited from earlier work.

B1: ScJen1: S. cerevisiae lactate transporter Jen1, positive control (protein, UniProt P36035 2-616, looked up)
Carboxylic acid transporter …: SSSITDEKISGEQQQPAGRKLYYNTSTFAEPPLVDGEGNPINYEPEVYNPDHEKLYHNPSLPAQSIQDTRDDELLERVYSQDQGVEYEEDEEDKPNLSAASIKSYALTRFTSLLHIHEFSWENVNPIPELRKMTWQNWNYFFMGYFAWLSAAWAFFCVSVSVAPLAELYDRPTKDITWGLGLVLFVRSAGAVIFGLWTDKSSRKWPYITCLFLFVIAQLCTPWCDTYEKFLGVRWITGIAMGGIYGCASATAIEDAPVKARSFLSGLFFSAYAMGFIFAIIFYRAFGYFRDDGWKILFWFSIFLPILLIFWRLLWPETKYFTKVLKARKLILSDAVKANGGEPLPKANFKQKMVSMKRTVQKYWLLFAYLVVLLVGPNYLTHASQDLLPTMLRAQLGLSKDAVTVIVVVTNIGAICGGMIFGQFMEVTGRRLGLLIACTMGGCFTYPAFMLRSEKAILGAGFMLYFCVFGVWGILPIHLAELAPADARALVAGLSYQLGNLASAAASTIETQLADRYPLERDASGAVIKEDYAKVMAILTGSVFIFTFACVFVGHEKFHRDLSSPVMKKYINQVEEYEADGLSISDIVEQKTECASVKMIDSNVSKTYEEHIETV
modifications: GFP fusion
notes: S. cerevisiae lactate transporter Jen1, positive control
The Km is the concentration of substrate that gives half-maximal velocity. In the case of B1, the Km in data set [1] (Casal 1999, Paiva 2013, read-out: Km for lactate uptake) is 290 µM; in data set [2] (14C-lactic acid uptake, pH 5.0, cells grown in YNB lactic acid pH 5.5, 30° C., mid-exponential phase, read-out: Km for lactic acid uptake), 270 ± 40 µM; in data set [2] (positive control in FIG. 4 legend, 14C-lactic acid, read-out: Km value for lactic acid uptake (unit inferred)) it was 270 µM. In data set [1] (Casal 1999, Paiva 2013), the “Vmax for lactate uptake” value is 0.40 nmol of lactic acid s1 mg of dry weight1. The “Vmax for lactic acid uptake” value in data set [2] (14C-lactic acid uptake, pH 5.0, cells grown in YNB lactic acid pH 5.5, 30° C., mid-exponential phase) was determined as 0.23±0.01 nmol s-1 mg-1 dry wt. Further, the “Vmax for lactic acid uptake (unit not given)” value in data set [2] (positive control in FIG. 4 legend, 14C-lactic acid) is listed as 0.23.

B2: pLIdP: Native E. coli LldP lactate permease cloned in p416GPD, control without eukaryotic termini (protein, UniProt P33231 1-551, looked up)
L-lactate permease: MNLWQQNYDPAGNIWLSSLIASLPILFFFFALIKLKLKGYVAASWTVAIALAVALLFYKMPVANALASVVYGFFYGLWPIAWIIIAAVFVYKISVKTGQFDIIRSSILSITPDQRLQMLIVGFCFGAFLEGAAGFGAPVAITAALLVGLGFKPLYAAGLCLIVNTAPVAFGAMGIPILVAGQVTGIDSFEIGQMVGRQLPFMTIIVLFWIMAIMDGWRGIKETWPAVVVAGGSFAIAQYLSSNFIGPELPDIISSLVSLLCLTLFLKRWQPVRVFRFGDLGASQVDMTLAHTGYTAGQVLRAWTPFLFLTATVTLWSIPPFKALFASGGALYEWVINIPVPYLDKLVARMPPVVSEATAYAAVFKFDWFSATGTAILFAALLSIVWLKMKPSDAISTFGSTLKELALPIYSIGMVLAFAFISNYSGLSSTLALALAHTGHAFTFFSPFLGWLGVFLTGSDTSSNALFAALQATAAQQIGVSDLLLVAANTTGGVTGKMISPQSIAIACAAVGLVGKESDLFRFTVKHSLIFTCIVGVITTLQAYVLTWMIP
Take B2: the “Kd (diffusion component) for lactate, non-mediated transport” value was determined as 47 ± 2.5 µM in data set [2] (14C-lactic acid uptake) and 43 ± 2 µM in data set [2] (14C-lactic acid uptake, listed as Lldp). Further, the “Transport mechanism for labelled lactic acid” value in data set [2] (lactic acid uptake, pH 5.0) is “non-mediated transport mechanism”.

B3: HXT1: S. cerevisiae low affinity glucose transporter, positive control (protein, UniProt P32465 1-570, looked up)
Low-affinity glucose …: MNSTPDLISPQKSNSSNSYELESGRSKAMNTPEGKNESFHDNLSESQVQPAVAPPNTGKGVYVTVSICCVMVAFGGFIFGWDTGTISGFVAQTDFLRRFGMKHHDGSHYLSKVRTGLIVSIFNIGCAIGGIVLAKLGDMYGRRIGLIVVVVIYTIGIIIQIASINKWYQYFIGRIISGLGVGGITVLSPMLISEVAPSEMRGTLVSCYQVMITLGIFLGYCTNFGTKNYSNSVQWRVPLGLCFAWALFMIGGMMFVPESPRYLVEAGRIDEARASLAKVNKCPPDHPYIQYELETIEASVEEMRAAGTASWGELFTGKPAMFQRTMMGIMIQSLQQLTGDNYFFYYGTIVFQAVGLSDSFETSIVFGVVNFFSTCCSLYTVDRFGRRNCLMWGAVGMVCCYVVYASVGVTRLWPNGQDQPSSKGAGNCMIVFACFYIFCFATTWAPIAYVVISECFPLRVKSKCMSIASAANWIWGFLISFFTPFITGAINFYYGYVFMGCMVFAYFYVFFFVPETKGLSLEEVNDMYAEGVLPWKSASWVPVSKRGADYNADDLMHDDQPFYKSLFSRK
With B3, the “Glucose concentration at which growth is restored” value in data set [3] is reported as “above 1%”. In data set [3] (read-out: Km of low-affinity glucose transport), the Km was 100000 µM.

The values are drawn from US20200263187A1, “A METHOD FOR EXPRESSION OF A PROKARYOTIC MEMBRANE PROTEIN IN AN EUKARYOTIC ORGANISM, PRODUCTS AND USES THEREOF” (Universidade Do Minho, priority 2017, published 2020).
